A short description of the data set: label from the status in PepcDB records.
In the case of “MANEATQELFQVLDNTAIILQNELEISYLEAVYETGENLFQKEVLQKEELSSEKQLKLQESYESIELENFSNEEIRKGLQLALLKGMKHGIQVNHQMTPDSIGFIVAYLLEKVIQKKKNISILDPACGTANLLTTVINQLELKGDVDVHASGVDVDDLLISLALVGADLQRQKMTLLHQDGLANLLVDPVDVVISDLPVGYYPDDENAKTFELCREEGHSFAHFLFIEQGMRYTKPGGYLFFLVPDAMFGTSDFAKVDKFIKKNGHIEGIIKLPETLFKSEQARKSILILRKADVNVKPPKEVLLANLSSLTDPSVTAPILAEIENWFKSKQ”, the protein production entry is listed as “not failed”.
In the case of “MGKRSSNDLPPVEASMARHIIHFTGPINSSTCGNLITTCSRALQQGAELLQLNIATMGGECSYGFTLYNFLRALPVEVHTHNLGTVESMGNILFLAGERRTACSFSKFLFHPFHWTLHGSVDHSRMSEYAMSLDYDLRLYAQIVAERTKGAAEVLDVPRYLMAYPRILAPREALENGMIHEIDEMPIASDATQWSVHA”, the protein production result is on record as “failed”.
With “MSLNMFWFLPTHGDGHYLGTEEGSRPVDHGYLQQIAQAADRLGYTGVLIPTGRSCEDAWLVAASMIPVTQRLKFLVALRPSVTSPTVAARQAATLDRLSNGRALFNLVTGSDPQELAGDGVFLDHSERYEASAEFTQVWRRLLQRETVDFNGKHIHVRGAKLLFPAIQQPYPPLYFGGSSDVAQELAAEQVDLYLTWGEPPELVKEKIEQVRAKAAAHGRKIRFGIRLHVIVRETNDEAWQAAERLISHLDDETIAKAQAAFARTDSVGQQRMAALHNGKRDNLEISPNLWAGVGLVRGGAGTALVGDGPTVAARINEYAALGIDSFVLSGYPHLEEAYRVGELLFPLLDVAIPEIPQPQPLNPQGEAVANDFIPRKVAQS” the entry was “not failed”; with “MRKDDVVIVTCAITGAIHTPSMSPYLPVTPDQIVEEAVKAAEAGAGMVHIHARDPKDGRPTTDVEVFRYICREIKKQSDVVINVTTGGGGTLGIPVEERAKVVPALKPEIATFNMGSMNFAIHPLLKKYKEFKYDWEPEYLEMTRDIVFRNTFKDLEALSRIFKENDTKPELECYDIGQIYNTAFMFHEGYLEPPLRLQFIHGILGGIGTAVEDVLFMKQTADRLIGRENYTWSLVGAGRFQMPLGTLAVIMGGDVRVGLEDSLYIERGKLAKSNAEQVEKMVRIVKELGKRPATPDEVREILGLKGKERVNF”, “not failed”.
On to “MTPFTLCAATSSGNPHNNHYPNHHHITDQTSLEQVAWLDHVAATYTGDRRSSASFISSDCVVMDIDNDHTDNPDEWITPDDLAELMAGVEFMTATSRNHQKPKRTLSARPRFHVYFPISPVTDADTYAGLKRRLAGRFGFFDPQALDAGRFIYGTTNPETTIHNGTKLLDAWLDEADEIDVFAAFDASTQVIGEGSRNATLSRFAGRVLIRYGQTAQARDLFDRKASLCEPPLSDHELESIWQSACRFAAKVEAQPGYLSPEAYAELTSLRPEDFTDVGQASMLTAEYSSRLAFTEATDWLVYEGGVWSESAPAAQGIAQELTDRQLAEAGHLLEKARDELMVTGANAVLAAASSKAKALGGFTSPQRAAYRAFEDAKAYEAFVLKRRESRAITSCLREAHPMLLTTPARLDADPYLLNTPGGTWDVRDGTRRDHNPLDLITKQTALDPTDTGAEIWNRALNVFFQSDRELIGYVQRIVGLAAIGTVMVEALVIAYGDGRNGKSTFWNTIARVLGTYAGNMSADVLTIGGNRNVKPELAEAKGKRLIIAAESEEGVRLSTSTVKQLASTDQIYAEKKYKAPFAFTPSHTLILYTNHLPRVGAMDAGIWRRLIVIPFNAVIESSSDVKNYADHLYETAGGAVLAWIMEGSRLIHAEDYQLTPPAQVVAASSAYREENNWFAQFLDARCEVDPSLSERAGDLYQEYRAWAQSTSGWARPMADFNATLEQSGFERRKSKHGMYVYGLALTSEFNS”, for which the protein production entry is on record as “failed”.
Consider “MKKFILIMVLGSALFTGGAIYDGIDNQDMTQPTIHFWEKNPMKLNLYAKGQCTYYVFDRIRQDGNMISNRWGDAKYWANEASKEGYKVNDNPSVGSILQYPKGQHGHVAYVDKVNHDGSLTVFDMNYRKPYEVTKRTVYEYQVDEFNYIHPKKNQSENA”, for which the protein production entry is “failed”.
The result for “KGLDKWGIYVPESAAQSVKDAVFEAGAGAIGDYSQCSFEWQGTGQFLPHHNAQPVVGHPGQLERTEELRVEFVAPARLRTTLIDAIRAAHPYEEPAFDVVSMQSTQDLETAEGLGRVGTLPEPMRFGDFVQQVADALPETSWGIRAAGDPEQMVHTVAVSSGSGDSFLDAVAALGVDVYVTSDLRHHPADESRRAQGPLLIDTAHWASEFPWTYQVQELLAQEFAQLDVEVATLRTDPWNISAHPQLR” reads “not failed”; that for “MNKHASQPRAIYYVVALQIWEYFSFYGMRALLILYLTNQLKYNDTHAYELFSAYCSLVYVTPILGGFLADKVLGNRMAVMLGALLMAIGHVVLGASEIHPSFLYLSLAIIVCGYGLFKSNVSCLLGELYEPTDPRRDGGFSLMYAAGNVGSIIAPIACGYAQEEYSWAMGFGLAAVGMIAGLVIFLCGNRHFTHTRGVNKKVLRATNFLLPNWGWLLVLLVATPALITILFWKEWSVYALIVATIIGLGVLAKIYRKAENQKQRKELGLIVTLTFFSMLFWAFAQQGGSSISLYIDRFVNRDMFGYTVPTAMFQSINAFAVMLCGVFLAWVVKESVAGNRTVRIWGKFALGLGLMSAGFCILTLSARWSAMYGHSSLPLMVLGLAVMGFAELFIDPVAMSQITRIEIPGVTGVLTGIYMLLSGAIANYLAGVIADQTSQASFDASGAINYSINAYIEVFDQITWGALACVGLVLMIWLYQALKFRNRALALES”, “failed”.
Consider “MWIQVRTIDGSKTCTIEDVSRKATIEELRERVWALFDVRPECQRLFYRGKQLENGYTLFDYDVGLNDIIQLLVRPD”, for which the protein production result is “not failed”.
Regarding “MEKLKEFRGIKEHLGVFREAVKDAERIGFAGVPGVCTPFAQLFAYAVRDKDNIFIPNTDFSKARKLEVTEYGVELGEISPGNVDVLVLLGGLSMPGIGSDIEDVKKLVEDALEEGGELMGLCYMDMFARAGWYELLDFDCVINADIDGYVLRG”, the protein production entry is on record as “not failed”.
The result for “MKKRLFVLSLILLVALDQLSKFWIVSHIALGEVKPFIPGIVSLTYLQNNGAAFSILQDQQWFFVVITVLVIGYAIYYLATHPHLNIWKQLALLLIISGGIGNFIDRLRLAYVIDMIHLDFVDFAIFNVADSYLTVGVILLLICLWKEEDYGN” reads “failed”; that for “MRLTGEIMKIITCFKLVPEEQDIVVTPEYTLNFDNADAKISQFDLNAIEAASQLATDDDEIAALTVGGSLLQNSKVRKDVLSRGPHSLYMVQDAQLEHALPLDTAKALATAVEKIGFDLLIFGEGSGDLYAQQVGLLVGELLQLPVINAVSAIQRQGNTLVIERTLEDDVEVIELSVPAVLCVTSDINVPRIPSMKAILGAGKKPVNQWQASDIGWSQSAPLAELTGIRVPPQTKRKHIILDNDSPEAIAELAEHLKKALN”, “failed”; that for “NWKTRLRMLNHFPKPTFEDIPLLDLALSDEKVPVRRQAIVLLGMIESKEILPYLYKGLRDKSPAVRRTAGDCISDLGYPEALPEMVLLLDDPQKIVRWRAAMFIFDEGNAEQLPALKAHINDNAFEVKLQIEMAISRIENGDEALGSVWKQMAN”, “failed”.
For “MGFLDKVEKSIEGAVSGVFARAFRGEVEPVEIAGRLQRELDSEAQILSRDKSLVPNDFVVRLSSRDYERLVPYTKTLNAEIIPTLRDHASERHYVFNGPIHIRYDLDDALPVGKFTVLTGENHAKAVSDRRAPLVLEVDGVRHPLTPPGLTIGRGSDADIRINDPGISRLHARINVWPQGNDIGLSIEDLDSTNGVTVNGVKVTSTELGDGSRIEIGSTRMLVHSPTRI”, the protein production entry is “failed”.
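Note: failed if final PepcDB status was selected cloned or expressed and not failed if soluble or beyond.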
